Values of other authors as cited in PMC3218054, “Characterisation of the Interaction of the C-Terminus of the Dopamine D2 Receptor with Neuronal Calcium Sensor-1” (PLoS ONE, 2011).
“Also recorded” adds a separate entry of the source.

System: NCS-1
Conditions: D3 receptor
Text: Ultimately, it would be important to understand how NCS-1 interacts with the intact receptor. We, therefore, constructed a model of the NCS-1-D3 receptor complex using the AIR derived from the D2SR peptide-NCS-1 chemical mapping data, and taking into consideration that many of the hydrophobic residues at the C-terminus of D3 receptor are involved in intramolecular interactions with helix I of the receptor [45]. HADDOCK docking produ ... || Biophysical analysis of NCS-1 was consistent with the protein being monomeric in the presence or absence of Ca ^2+.

B1: D3 receptor: dopamine D3 receptor (PDB Accession 3PBL), docked onto NCS-1 (protein, UniProt P35462 1-400, looked up)
D(3) dopamine receptor: MASLSQLSGHLNYTCGAENSTGASQARPHAYYALSYCALILAIVFGNGLVCMAVLKERALQTTTNYLVVSLAVADLLVATLVMPWVVYLEVTGGVWNFSRICCDVFVTLDVMMCTASILNLCAISIDRYTAVVMPVHYQHGTGQSSCRRVALMITAVWVLAFAVSCPLLFGFNTTGDPTVCSISNPDFVIYSSVVSFYLPFGVTVLVYARIYVVLKQRRRKRILTRQNSQCNSVRPGFPQQTLSPDPAHLELKRYYSICQDTALGGPGFQERGGELKREEKTRNSLSPTIAPKLSLEVRKLSNGRLSTSLKLGPLQPRGVPLREKKATQMVAIVLGAFIVCWLPFFLTHVLNTHCQTCHVSPELYSATTWLGYVNSALNPVIYTTFNIEFRKAFLKILSC
**Q.** For B1, which “ability to bind NCS-1” value is on record?
**A.** shown to bind to the dopamine D3 receptor and to regulate its internalisation; also recorded: can also bind to NCS-1
